B1: murine 15D5 antibody (M5.15D5.2A1.1H10) (antibody, V domains shown)
VH: EFQLQQSGPELVKPGASVKISCKASGYSFTDYNMNWVKQNNGKSLEWIGGINPNYGTTVYNQKFKGKATLTVDQSSSTAYMQLVSLTSEDSAVYYCARMTTIVPFDYWGQGTTLTVSS
VL: DIQMTQTTFSLSASLGDRVTISCRASQDISNYLNWYQQKPDGTVKLLIYYTSTLHSGVPSRFSGSGSGTDYFLTIRNLEEEDIATYFCQQGYTLPWTFGGGTKLDIK
B2: murine 1D9 antibody (M5.1D9.1F5) (antibody, V domains shown)
VH: QVQLQQPGAELVRPGTSVKLSCKASGYTFTSYWMHWVKQRPGQGLEWIGVIDPSDGYSHYNQKFKGKATLTVDTSSSTAYMQLSSLTSEDSAVYYCAGGLAGTLDYWGQGTTLTVSS
VL: DVLMTQTPLSLPVSLGDQASISCRSSQSIVHSSGNTYLQWFLQKPGQSPKLLISKVSNRFSGVPDRFSGSGSGTDFTLRISRVEAEDLGLYYCFQGSHVPWTFGGGTKLEIK
B3: humanized 1D9 POTELLIGENT antibody (antibody, human IgG1, kappa, V domains shown)
VH: QVQLVQSGAEVKKPGASVKVSCKASGYTFTSYWMHWVRQAPGQGLEWMGVIDPSDGYSHYNQKFKGKVTLTVDTSISTAYMELSRLRSDDTAVYYCAGGLAGTLDYWGQGTTVTVSS
VL: DIQMTQSPSSLSASVGDRVTITCRSSQSIVHSSGNTYLQWFQQKPGKAPKLLIYKVSNRFSGVPSRFSGSGSGTDFTLTISSLQPEDFAVYYCFQGSHVPWTFGQGTKLEIKR
notes: also called humanized 1D9 H6L2 POTELLIGENT antibody; humanized POTELLIGENT antibody
B4: humanized 1D9 Fc disabled antibody (antibody, V domains shown)
VH: B3 VH
VL: B3 VL
notes: also called humanized 1D9 H6L2 Fc disabled antibody
B5: humanized 1D9 antibody (antibody, human IgG1, kappa, V domains shown)
VH: B3 VH
VL: B3 VL

What was measured:
human HER3 receptor = human HER3 receptor (human, UniProt P21860 20-1342); assay: cell-based or functional assay
[1] = target: T1, full-length human HER3 extracellular domain (ECD) (human, UniProt P21860 20-643); assay: BIACORE, antibody captured on protein A, HER3 ECD as analyte, 25 C, 1:1 model
T1 construct: also called human HER3 ECD; HER3 ECD full length

[2] = target: T2, full-length rat HER3 extracellular domain (ECD) (rat, UniProt Q62799 20-643); assay: BIACORE, antibody captured on protein A, rat HER3 ECD as analyte, 25 C, 1:1 model
T2 construct: extracellular domain; also called Rat HER3 ECD
T2 sequence (Q62799 20-643): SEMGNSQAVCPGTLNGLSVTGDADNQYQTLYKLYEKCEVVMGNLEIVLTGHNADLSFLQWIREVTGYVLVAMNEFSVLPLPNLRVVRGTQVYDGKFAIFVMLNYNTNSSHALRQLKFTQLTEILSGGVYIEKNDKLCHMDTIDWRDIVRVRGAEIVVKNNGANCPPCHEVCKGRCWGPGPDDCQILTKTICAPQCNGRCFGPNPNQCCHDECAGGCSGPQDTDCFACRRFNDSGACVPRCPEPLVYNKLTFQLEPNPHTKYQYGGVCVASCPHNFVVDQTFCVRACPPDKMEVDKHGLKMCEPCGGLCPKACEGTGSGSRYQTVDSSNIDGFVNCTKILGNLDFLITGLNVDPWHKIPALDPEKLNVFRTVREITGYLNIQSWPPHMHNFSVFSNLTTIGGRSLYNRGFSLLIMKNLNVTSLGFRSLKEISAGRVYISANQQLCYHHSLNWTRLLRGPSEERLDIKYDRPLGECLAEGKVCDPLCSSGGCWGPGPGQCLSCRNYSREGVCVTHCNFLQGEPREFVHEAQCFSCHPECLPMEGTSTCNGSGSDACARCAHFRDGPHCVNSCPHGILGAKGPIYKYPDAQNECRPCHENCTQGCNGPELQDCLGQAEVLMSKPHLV

T1 sequence (P21860 20-643): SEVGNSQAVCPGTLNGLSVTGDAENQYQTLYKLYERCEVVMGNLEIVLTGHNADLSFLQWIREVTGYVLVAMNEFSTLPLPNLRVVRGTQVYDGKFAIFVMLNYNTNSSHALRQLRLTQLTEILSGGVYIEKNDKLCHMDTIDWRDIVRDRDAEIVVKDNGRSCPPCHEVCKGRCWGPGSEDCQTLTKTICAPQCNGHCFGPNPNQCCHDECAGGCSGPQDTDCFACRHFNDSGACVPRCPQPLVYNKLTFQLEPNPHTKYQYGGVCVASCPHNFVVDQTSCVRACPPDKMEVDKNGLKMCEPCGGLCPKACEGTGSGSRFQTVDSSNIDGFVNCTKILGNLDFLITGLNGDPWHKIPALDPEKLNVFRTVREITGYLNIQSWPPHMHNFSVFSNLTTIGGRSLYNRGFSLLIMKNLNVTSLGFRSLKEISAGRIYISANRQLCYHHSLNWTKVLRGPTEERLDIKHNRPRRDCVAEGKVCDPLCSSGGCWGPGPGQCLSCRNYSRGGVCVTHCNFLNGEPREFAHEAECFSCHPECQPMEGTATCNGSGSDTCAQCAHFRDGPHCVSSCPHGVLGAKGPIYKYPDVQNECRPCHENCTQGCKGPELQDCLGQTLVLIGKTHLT
Sequence of human HER3 receptor (P21860 20-1342 limits assumed): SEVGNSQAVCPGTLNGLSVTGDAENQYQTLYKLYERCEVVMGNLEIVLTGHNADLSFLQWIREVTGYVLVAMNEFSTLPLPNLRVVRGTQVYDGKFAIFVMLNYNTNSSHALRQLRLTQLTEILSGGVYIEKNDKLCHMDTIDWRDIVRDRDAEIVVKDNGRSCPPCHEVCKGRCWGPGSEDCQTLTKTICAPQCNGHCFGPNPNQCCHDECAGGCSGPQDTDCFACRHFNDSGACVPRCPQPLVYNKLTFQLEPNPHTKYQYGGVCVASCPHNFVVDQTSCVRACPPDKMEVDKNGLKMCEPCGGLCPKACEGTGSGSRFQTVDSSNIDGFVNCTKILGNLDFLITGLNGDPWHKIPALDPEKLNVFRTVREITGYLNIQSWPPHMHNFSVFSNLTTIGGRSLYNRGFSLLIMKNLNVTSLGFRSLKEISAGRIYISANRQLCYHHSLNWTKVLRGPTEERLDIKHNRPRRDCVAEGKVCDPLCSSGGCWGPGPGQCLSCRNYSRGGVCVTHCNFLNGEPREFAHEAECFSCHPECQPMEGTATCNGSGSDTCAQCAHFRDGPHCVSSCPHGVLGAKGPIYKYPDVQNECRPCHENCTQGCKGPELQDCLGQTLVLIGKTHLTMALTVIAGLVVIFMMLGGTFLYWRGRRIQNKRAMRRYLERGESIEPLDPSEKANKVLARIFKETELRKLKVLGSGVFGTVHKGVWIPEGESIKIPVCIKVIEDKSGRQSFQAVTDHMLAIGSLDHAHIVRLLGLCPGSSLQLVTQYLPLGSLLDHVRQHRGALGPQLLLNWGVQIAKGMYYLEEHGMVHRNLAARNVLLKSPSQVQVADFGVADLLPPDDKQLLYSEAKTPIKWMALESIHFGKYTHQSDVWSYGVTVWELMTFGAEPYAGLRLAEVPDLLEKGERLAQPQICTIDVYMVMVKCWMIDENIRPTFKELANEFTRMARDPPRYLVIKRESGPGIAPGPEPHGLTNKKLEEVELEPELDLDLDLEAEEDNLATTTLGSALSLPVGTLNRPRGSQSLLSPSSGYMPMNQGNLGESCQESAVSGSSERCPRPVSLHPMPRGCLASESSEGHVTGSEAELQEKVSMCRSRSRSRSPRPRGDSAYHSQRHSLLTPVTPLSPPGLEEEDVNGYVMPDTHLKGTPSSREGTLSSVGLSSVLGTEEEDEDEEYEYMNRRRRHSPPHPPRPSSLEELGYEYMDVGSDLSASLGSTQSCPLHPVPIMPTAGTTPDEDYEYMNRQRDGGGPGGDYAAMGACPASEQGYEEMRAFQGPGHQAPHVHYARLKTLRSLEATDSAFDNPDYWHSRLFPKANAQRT

Row | Phospho-HER3 ELISA IC50, heregulin induced HER3 phosphorylation, BT-474 cells (human HER3 receptor) [µg/mL] | Phospho-HER3 ELISA IC50, heregulin induced HER3 phosphorylation, BxPC3 cells (human HER3 receptor) [µg/mL] | Phospho-HER3 ELISA IC50, heregulin induced HER3 phosphorylation, CHL-1 cells (human HER3 receptor) [µg/mL] | Phospho-HER3 ELISA IC50, heregulin induced HER3 phosphorylation, MCF7 cells (human HER3 receptor) [µg/mL] | Phospho-HER3 ELISA IC50, heregulin induced HER3 phosphorylation, N87 cells (human HER3 receptor) [µg/mL] | Phospho-HER3 ELISA IC50, heregulin induced HER3 phosphorylation, SK-BR-3 cells (human HER3 receptor) [µg/mL] | IC50, ligand (EGF, betacellulin or heregulin) induced HER3 receptor phosphorylation, SK-BR-3 cells (human HER3 receptor) [µg/mL] | Kd [1] [nM] | koff [1] [s⁻¹] | kon [1] [M⁻¹ s⁻¹] | Kd [2] [nM] | koff [2] [s⁻¹] | kon [2] [M⁻¹ s⁻¹] | Binder
1 | 0.12 | 0.0541 | 0.138 | 0.0593 | 0.0533 | 0.0191 |  |  |  |  |  |  |  | B1
2 | 0.0223 | 0.0068 | 0.0406 | 0.0104 | 0.0204 | 0.0032 | ~0.003 |  |  |  |  |  |  | B2
3 |  | 0.0056 | 0.0282 |  | 0.0175 | 0.0034 |  | 2.01 | 0.00223 | 1.11e+06 | 3.37 | 0.0011 | 326000 | B3
4 |  | 0.0107 | 0.0399 |  | 0.0297 | 0.0044 |  | 4.49 | 0.00122 | 271000 |  |  |  | B4
5 |  | 0.0116 | 0.0365 |  | 0.0218 | 0.0036 |  |  |  |  |  |  |  | B5

From WO2016059602A2 (dated 2016)
